Legend:
[1] = target: T1, biotinylated canine FcRn (canine, UniProt A0A8I3PFR8 25-347, biotinylated, site not stated); test: FcRn ELISA; species of FcRn not given, taken as canine
Method: (§1) Insulin-Fc fusion proteins comprising Fc fragments of canine origin were diluted to 10 µg/ml in sodium bicarbonate pH 9.6 buffer and coated in duplicate on Maxisorb ELISA plate strips for 1-2 hours at RT. The strips were then washed 4 times with PBST (PBS/0.1% Tween-20) buffer and blocked with Superblock blocking reagent (ThermoFisher). Strips for FcRn binding were then washed again twice with pH 5.5 MES/NaCl/Tween (50 mM MES/150mM NaCl/0.1% Tween-20) buffer before addition of the FcRn reagent (biotinylated canine FcRn; Immunitrack). Serial dilutions (1:3X dilutions) of biotinylated FcRn reagent were prepared in pH 5.5 MES/NaCl/Tween/10%Superblock buffer at concentrations from 1000 ng/ml to 0.45 ng/mL and loaded at 100 µL/well using a multichannel pipettor onto the strips coated with the insulin-Fc fusion protein compounds. The assay plate was then incubated for 1 hour at room temperature. FcRn binding strips were washed 4 times with pH 5.5 MES/NaCl/Tween buffer and then loaded with 100 µl/well streptavidin-HRP diluted 1:10000 in pH 5.5 MES/NaCl /10%Superblock buffer. After incubating for 45 minutes, strips were washed again 4 times with pH 5.5 MES/NaCl/Tween buffer. […] The plate was read in an ELISA plate reader at a wavelength of 450 nm. […] EC50 values for each binding curve were calculated to compare between different compounds.

[2] = target: T2, biotinylated recombinant human Fc(gamma)RI (human, UniProt P12314 16-288, biotinylated, site not stated); test: ELISA, fusion protein coated, biotinylated rhFc(gamma)RI at 3000 ng/mL
T2 construct: Bought reagent; construct not described; also called rhFc(gamma)RI; Fc(gamma) receptor I
T2 sequence (P12314 16-288 limits assumed): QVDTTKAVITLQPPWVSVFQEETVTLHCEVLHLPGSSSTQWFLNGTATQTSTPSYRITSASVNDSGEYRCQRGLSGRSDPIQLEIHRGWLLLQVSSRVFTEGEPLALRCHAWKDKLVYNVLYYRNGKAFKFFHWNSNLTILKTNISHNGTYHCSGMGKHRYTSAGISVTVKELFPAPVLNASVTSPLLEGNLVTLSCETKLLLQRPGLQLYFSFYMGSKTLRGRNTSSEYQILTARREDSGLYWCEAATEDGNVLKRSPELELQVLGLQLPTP
Method: The binding of insulin-Fc fusion proteins to the Fc(gamma)RI at pH 7.4 is conducted using an ELISA assay as follows using human Fc(gamma)RI (i.e., rhFc(gamma)RI). Insulin-Fc fusion proteins are diluted to 10 µg/mL in sodium bicarbonate buffer at pH 9.6 and coated on Maxisorp (Nunc) microtiter plates overnight at 4° C., after which the microplate strips are washed 5 times with PBST (PBS/0.05% Tween-20) buffer and blocked with Superblock blocking reagent (ThermoFisher). Serial dilutions of biotinylated rhFc(gamma)RI (recombinant human Fc(gamma)RI; R&D Systems) are prepared in PBST/10% Superblock buffer from 3000 ng/mL to 4.1 ng/mL and loaded at 100 µL/well onto the microplate strips coated with insulin-Fc fusion protein. The microtiter plate is incubated for 1 hour at room temperature after which time the microplate strips are washed 5 times with PBST and then loaded with 100 µL/well of streptavidin-HRP diluted 1:10000 in PBST/10% Superblock buffer. After incubating for 45 min, the microplate strips are washed again 5 times with PBST. TMB is added to reveal the bound Fc(gamma)RI proteins and is stopped with ELISA stop reagent (Boston Bioproducts). The plate is read in an ELISA plate reader at 450 nm, and the OD450 values (proportional to the binding of rhFc(gamma)RI to insulin-Fc protein) are plotted against log concentrations of rhFc(gamma)RI added to each well to generate binding curves using GraphPad Prism software. For groupings of compounds with somewhat similar curves, the OD450 at one of the higher concentrations, for instance at rhFc(gamma)RI concentrations of 3000 ng/mL, can be used to identify differences between coated insulin-Fc fusion protein compounds. […]
Finally, select compounds were tested for their likelihood to interact with the immune system by measuring their Fc(gamma) receptor binding activity according to the procedure of Example 15.

[3] = target: T3, human insulin receptor (IR) on human IM-9 cells (human, UniProt P06213 28-1382); test: competition with biotinylated RHI on IM-9 cells, flow cytometry, 4 C
T3 construct: whole, on cells; also called human IR
T3 sequence (P06213 28-1382): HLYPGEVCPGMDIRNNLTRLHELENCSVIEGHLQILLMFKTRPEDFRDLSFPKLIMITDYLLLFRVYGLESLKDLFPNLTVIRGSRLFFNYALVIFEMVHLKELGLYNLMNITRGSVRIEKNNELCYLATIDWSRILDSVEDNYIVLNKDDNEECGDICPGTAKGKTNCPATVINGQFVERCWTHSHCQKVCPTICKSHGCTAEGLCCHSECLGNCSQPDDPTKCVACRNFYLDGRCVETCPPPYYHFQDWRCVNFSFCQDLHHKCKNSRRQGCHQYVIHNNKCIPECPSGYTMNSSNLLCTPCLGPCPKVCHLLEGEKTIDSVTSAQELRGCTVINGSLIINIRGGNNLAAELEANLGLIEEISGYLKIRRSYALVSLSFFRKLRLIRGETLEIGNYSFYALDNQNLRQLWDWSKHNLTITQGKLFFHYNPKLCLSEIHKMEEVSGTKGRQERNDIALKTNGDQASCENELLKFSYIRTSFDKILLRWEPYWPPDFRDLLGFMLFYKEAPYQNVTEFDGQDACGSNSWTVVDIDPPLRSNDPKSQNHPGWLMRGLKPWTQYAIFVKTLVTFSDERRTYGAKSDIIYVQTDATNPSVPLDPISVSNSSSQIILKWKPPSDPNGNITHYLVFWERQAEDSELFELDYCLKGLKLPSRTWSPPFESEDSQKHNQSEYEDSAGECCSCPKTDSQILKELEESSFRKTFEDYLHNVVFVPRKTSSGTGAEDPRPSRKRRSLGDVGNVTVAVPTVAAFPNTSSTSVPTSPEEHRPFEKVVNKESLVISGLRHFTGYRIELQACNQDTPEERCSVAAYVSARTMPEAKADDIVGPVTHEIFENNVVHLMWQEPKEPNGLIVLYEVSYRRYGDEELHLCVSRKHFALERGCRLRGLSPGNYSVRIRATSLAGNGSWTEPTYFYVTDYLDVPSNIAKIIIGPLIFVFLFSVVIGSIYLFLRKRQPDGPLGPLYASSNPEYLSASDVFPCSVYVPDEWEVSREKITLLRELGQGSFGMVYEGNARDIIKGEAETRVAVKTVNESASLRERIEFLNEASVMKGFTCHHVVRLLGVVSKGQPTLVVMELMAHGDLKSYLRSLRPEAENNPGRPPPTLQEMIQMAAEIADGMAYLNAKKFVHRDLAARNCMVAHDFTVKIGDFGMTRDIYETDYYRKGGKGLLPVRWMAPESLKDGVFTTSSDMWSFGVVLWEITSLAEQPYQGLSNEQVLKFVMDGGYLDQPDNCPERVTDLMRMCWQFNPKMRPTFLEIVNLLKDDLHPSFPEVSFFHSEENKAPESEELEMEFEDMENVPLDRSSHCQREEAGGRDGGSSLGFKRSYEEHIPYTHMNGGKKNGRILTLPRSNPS

[4] = target: T1, biotinylated canine FcRn; test: ELISA pH 5.5, fusion protein coated, biotinylated canine FcRn titrated
Method: as §1

[5] = target: T3, human insulin receptor (IR) on human …; test: competition with biotinylated RHI on IM-9 cells, flow cytometry, 4 C; material purified via Protein A
Method: (§2) 40 µL of an IM-9 cell suspension (8×10⁶ cells/mL) was then added to each well by multichannel pipette, mixed again gently and incubated on ice for 30 min to allow competitive binding on the IR on IM-9 cells. Cells were then washed twice with 275µL of ice-cold FACS wash buffer (HBSS/2mM EDTA/0.1% Na-azide + 0.5% horse serum) by centrifuging the V-bottom plate at 3000 rpm for 3 min and aspirating the supernatant. Cells were then resuspended in 40µL of FACS staining medium containing 1:100 diluted Streptavidin-PE (Life Technologies) for 20 min on ice. Cells were then washed once with 275 µL of ice-cold FACS buffer and finally fixed with 3% paraformaldehyde for 10 min at room temp. Cells were then washed once with 275 µL of ice-cold FACS buffer and resuspended in 250µl of FACS buffer for analysis.
(§3) The insulin-Fc fusion proteins were manufactured in HEK293 cells according to Example 1 and purified using a Protein A or Protein G columns according to Example 4. […] Their %homodimer content was measured by size-exclusion chromatography according to Example 10, and their insulin receptor binding affinities were measured according to Example 12. Additionally, the insulin-Fc fusion protein affinities for the canine FcRn receptor were measured according to Example 15.

[6] = target: T3, human insulin receptor (IR) on human …; test: competition with biotinylated RHI on IM-9 cells, flow cytometry, 4 C; material purified by Protein G
Method: as §2, §3

T1 sequence (A0A8I3PFR8 entry or part of it): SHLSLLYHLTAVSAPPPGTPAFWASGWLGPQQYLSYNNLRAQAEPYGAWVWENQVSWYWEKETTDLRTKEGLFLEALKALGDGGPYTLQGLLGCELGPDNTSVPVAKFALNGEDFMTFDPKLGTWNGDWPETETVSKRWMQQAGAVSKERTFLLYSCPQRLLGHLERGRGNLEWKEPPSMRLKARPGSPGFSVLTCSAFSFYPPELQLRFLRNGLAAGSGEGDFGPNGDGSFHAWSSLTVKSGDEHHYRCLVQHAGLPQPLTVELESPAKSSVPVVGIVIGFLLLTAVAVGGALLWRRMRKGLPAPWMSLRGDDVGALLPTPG

| Binder | EC50 [1] [µg/mL] | OD450nm [2] | OD450nm minus assay background [2] | ratio to SEQ ID NO: 36 [2] | IC50 [3] [nM] | EC50 [4] [µg/mL] | IC50 [5] [nM] | IC50 [6] [nM] |
| --- | --- | --- | --- | --- | --- | --- | --- | --- |
| insulin-Fc fusion protein of SEQ ID NO: 30 (Fc fusion) FVNQHLCGSHLVEALALVCGERGFHYGGGGGGSGGGGGIVEQCCTSTCSLDQLENYCGGGGGQGGGGQGGGGQGGGGGDCPKCPAPEMLGGPSVFIFPPKPKDTLLIARTPEVTCVVVDLDPEDPEVQISWFVDGKQMQTAKTQPREEQFSGTYRVVSVLPIGHQDWLKGKQFTCKVNNKALPSPIERTISKARGQAHQPSVYVLPPSREELSKNTVSLTCLIKDFFPPDIDVEWQSNGQQEPESKYRTTPPQLDEDGSYFLYSKLSVDKSRWQRGDTFICAVMHEALHNHYTQESLSHSPG | 1.19 | 0.177 | 0.12 | 0.32 | 2040 |  |  |  |
| insulin-Fc fusion protein of SEQ ID NO: 58 (Fc fusion, purified by Protein A or Protein G) FVNQHLCGSHLVEALELVCGERGFHYGGGGGGSGGGGGIVEQCCTSTCSLDQLENYCGGGGGQGGGGQGGGGQGGGGGRCTDTPPCPVPEPLGGPSVLIFPPKPKDILRITRTPEVTCVVLDLGREDPEVQISWFVDGKEVHTAKTQSREQQFNGTYRVVSVLPIEHQDWLTGKEFKCRVNHIDLPSPIERTISKARGRAHKPSVYVLPPSPKELSSSDTVSITCLIKDFYPPDIDVEWQSNGQQEPERKHRMTPPQLDEDGSYFLYSKLSVDKSRWQQGDPFTCAVMHETLQNHYTDLSLSHSPG |  | 0.253 | 0.196 | 0.53 |  | 1.61 | 2590 |  |
| insulin-Fc fusion protein of SEQ ID NO: 59 (Fc fusion, purified by Protein G) FVNQHLCGSHLVEALELVCGERGFHYGGGGGGSGGGGGIVEQCCTSTCSLDQLENYCGGGGGQGGGGQGGGGQGGGGGCNNCPCPGCGLLGGPSVFIFPPKPKDILVTARTPTVTCVVVDLDPENPEVQISWFVDSKQVQTANTQPREEQSNGTYRVVSVLPIGHQDWLSGKQFKCKVNNKALPSPIEEIISKTPGQAHQPNVYVLPPSRDEMSKNTVTLTCLVKDFFPPEIDVEWQSNGQQEPESKYRMTPPQLDEDGSYFLYSKLSVDKSRWQRGDTFICAVMHEALHNHYTQISLSHSPG |  |  |  |  |  |  |  | 2080 |

— patent publication US20230250148A1 (published 2023)
